According to IntAct's records for PubMed 12692135:

B1: Tumor protein 63 (Homo sapiens), Q9H3D4-2 (parent)
chain: MLYLENNAQTQFSEPQYTNLGLLNSMDQQIQNGSSSTSPYNTDHAQNSVTAPSPYAQPSSTFDALSPSPAIPSNTDYPGPHSFDVSFQQSSTAKSATWTYSTELKKLYCQIAKTCPIQIKVMTPPPQGAVIRAMPVYKKAEHVTEVVKRCPNHELSREFNEGQIAPPSHLIRVEGNSHAQYVEDPITGRQSVLVPYEPPQVGTEFTTVLYNFMCNSSCVGGMNRRPILIIVTLETRDGQVLGRRCFEARICACPGRDRKADEDSIRKQQVSDSTKNGDGTKRPFRQNTHGIQMTSIKKRRSPDDELLYLPVRGRETYEMLLKIKESLELMQYLPQHTIETYRQQQQQQHQHLLQKQTSIQSPSSYGNSSPPLNKMNSMNKLPSVSQLINPQQRNALTPTTIPDGMGANIPMMGTHMPMAGDMNGLSPTQALPPPLSMPSTSHCTPPPPYPTDCSIVSFLARLGCSSCLDYFTTQGLTTIYQIEHYSMDDLASLKIPEQFRHAIWKGILDHRQLHEFSSPSHLLRTPSSASTVSVGSSETRGERVIDAVRFTLRQTISFPPRDEWNDFNFDMDARRNKQQRIKEEGE
B2: Tumor protein 63 (Homo sapiens), Q9H3D4-1 (parent)
chain: MNFETSRCATLQYCPDPYIQRFVETPAHFSWKESYYRSTMSQSTQTNEFLSPEVFQHIWDFLEQPICSVQPIDLNFVDEPSEDGATNKIEISMDCIRMQDSDLSDPMWPQYTNLGLLNSMDQQIQNGSSSTSPYNTDHAQNSVTAPSPYAQPSSTFDALSPSPAIPSNTDYPGPHSFDVSFQQSSTAKSATWTYSTELKKLYCQIAKTCPIQIKVMTPPPQGAVIRAMPVYKKAEHVTEVVKRCPNHELSREFNEGQIAPPSHLIRVEGNSHAQYVEDPITGRQSVLVPYEPPQVGTEFTTVLYNFMCNSSCVGGMNRRPILIIVTLETRDGQVLGRRCFEARICACPGRDRKADEDSIRKQQVSDSTKNGDGTKRPFRQNTHGIQMTSIKKRRSPDDELLYLPVRGRETYEMLLKIKESLELMQYLPQHTIETYRQQQQQQHQHLLQKQTSIQSPSSYGNSSPPLNKMNSMNKLPSVSQLINPQQRNALTPTTIPDGMGANIPMMGTHMPMAGDMNGLSPTQALPPPLSMPSTSHCTPPPPYPTDCSIVSFLARLGCSSCLDYFTTQGLTTIYQIEHYSMDDLASLKIPEQFRHAIWKGILDHRQLHEFSSPSHLLRTPSSASTVSVGSSETRGERVIDAVRFTLRQTISFPPRDEWNDFNFDMDARRNKQQRIKEEGE
B3: Tumor protein 63 (Homo sapiens), Q9H3D4 (parent)
chain: B2 chain
partner: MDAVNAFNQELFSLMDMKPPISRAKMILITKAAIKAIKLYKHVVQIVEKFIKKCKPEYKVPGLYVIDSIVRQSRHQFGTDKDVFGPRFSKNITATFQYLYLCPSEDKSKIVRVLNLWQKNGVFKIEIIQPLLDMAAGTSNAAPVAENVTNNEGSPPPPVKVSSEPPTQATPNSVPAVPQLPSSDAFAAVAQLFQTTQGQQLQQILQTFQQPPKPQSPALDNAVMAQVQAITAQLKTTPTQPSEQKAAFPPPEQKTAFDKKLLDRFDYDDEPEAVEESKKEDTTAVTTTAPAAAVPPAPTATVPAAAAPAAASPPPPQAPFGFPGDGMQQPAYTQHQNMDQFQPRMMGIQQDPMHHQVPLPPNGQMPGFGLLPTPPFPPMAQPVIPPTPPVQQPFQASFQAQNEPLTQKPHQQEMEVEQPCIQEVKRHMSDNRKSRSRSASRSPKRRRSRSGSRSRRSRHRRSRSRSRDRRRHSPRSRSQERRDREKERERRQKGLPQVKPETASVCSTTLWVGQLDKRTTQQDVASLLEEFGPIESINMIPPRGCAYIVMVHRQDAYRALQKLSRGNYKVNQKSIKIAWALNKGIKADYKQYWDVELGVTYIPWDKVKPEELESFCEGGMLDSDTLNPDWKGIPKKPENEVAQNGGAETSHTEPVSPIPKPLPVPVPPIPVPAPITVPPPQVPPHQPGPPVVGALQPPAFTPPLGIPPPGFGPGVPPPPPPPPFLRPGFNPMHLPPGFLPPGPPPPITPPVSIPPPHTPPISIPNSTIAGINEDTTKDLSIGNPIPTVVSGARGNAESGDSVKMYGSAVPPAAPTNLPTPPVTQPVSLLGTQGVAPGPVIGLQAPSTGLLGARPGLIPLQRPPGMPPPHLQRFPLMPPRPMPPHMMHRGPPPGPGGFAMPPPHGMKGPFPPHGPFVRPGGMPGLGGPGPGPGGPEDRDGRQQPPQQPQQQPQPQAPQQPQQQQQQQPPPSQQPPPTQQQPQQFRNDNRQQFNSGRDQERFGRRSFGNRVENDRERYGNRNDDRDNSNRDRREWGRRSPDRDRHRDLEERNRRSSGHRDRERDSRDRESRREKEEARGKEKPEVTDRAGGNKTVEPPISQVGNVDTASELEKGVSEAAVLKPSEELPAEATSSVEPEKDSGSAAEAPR

Variants of: B1
Settings: with roaa_human HNRNPAB
Target sequence in this assay (Q99729 whole entry): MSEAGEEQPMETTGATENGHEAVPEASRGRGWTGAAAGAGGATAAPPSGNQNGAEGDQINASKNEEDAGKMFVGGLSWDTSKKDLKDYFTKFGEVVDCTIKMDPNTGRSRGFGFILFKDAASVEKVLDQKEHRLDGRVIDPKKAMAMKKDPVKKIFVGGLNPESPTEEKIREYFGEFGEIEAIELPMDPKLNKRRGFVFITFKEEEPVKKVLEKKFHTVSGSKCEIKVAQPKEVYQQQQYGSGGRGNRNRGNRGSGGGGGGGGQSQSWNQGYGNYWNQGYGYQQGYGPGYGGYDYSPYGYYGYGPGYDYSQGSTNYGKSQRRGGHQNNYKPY

Variant | effect of a mutation on the interaction
MLYLENNAQTQFSEPQYTNLGLLNSMDQQIQNGSSSTSPYNTDHAQNSVTAPSPYAQPSSTFDALSPSPAIPSNTDYPGPHSFDVSFQQSSTAKSATWTYSTELKKLYCQIAKTCPIQIKVMTPPPQGAVIRAMPVYKKAEHVTEVVKRCPNHELSREFNEGQIAPPSHLIRVEGNSHAQYVEDPITGRQSVLVPYEPPQVGTEFTTVLYNFMCNSSCVGGMNRRPILIIVTLETRDGQVLGRRCFEARICACPGRDRKADEDSIRKQQVSDSTKNGDGTKRPFRQNTHGIQMTSIKKRRSPDDELLYLPVRGRETYEMLLKIKESLELMQYLPQHTIETYRQQQQQQHQHLLQKQTSIQSPSSYGNSSPPLNKMNSMNKLPSVSQLINPQQRNALTPTTIPDGMGANIPMMGTHMPMAGDMNGLSPTQALPPPLSMPSTSHCTPPPPYPTDCSIVSFLARLGCSSVLDYFTTQGLTTIYQIEHYSMDDLASLKIPEQFRHAIWKGILDHRQLHEFSSPSHLLRTPSSASTVSVGSSETRGERVIDAVRFTLRQTISFPPRDEWNDFNFDMDARRNKQQRIKEEGE [C467V] | disrupting interaction strength
MLYLENNAQTQFSEPQYTNLGLLNSMDQQIQNGSSSTSPYNTDHAQNSVTAPSPYAQPSSTFDALSPSPAIPSNTDYPGPHSFDVSFQQSSTAKSATWTYSTELKKLYCQIAKTCPIQIKVMTPPPQGAVIRAMPVYKKAEHVTEVVKRCPNHELSREFNEGQIAPPSHLIRVEGNSHAQYVEDPITGRQSVLVPYEPPQVGTEFTTVLYNFMCNSSCVGGMNRRPILIIVTLETRDGQVLGRRCFEARICACPGRDRKADEDSIRKQQVSDSTKNGDGTKRPFRQNTHGIQMTSIKKRRSPDDELLYLPVRGRETYEMLLKIKESLELMQYLPQHTIETYRQQQQQQHQHLLQKQTSIQSPSSYGNSSPPLNKMNSMNKLPSVSQLINPQQRNALTPTTIPDGMGANIPMMGTHMPMAGDMNGLSPTQALPPPLSMPSTSHCTPPPPYPTDCSIVSFLARLGCSSCLDYFTTQVLTTIYQIEHYSMDDLASLKIPEQFRHAIWKGILDHRQLHEFSSPSHLLRTPSSASTVSVGSSETRGERVIDAVRFTLRQTISFPPRDEWNDFNFDMDARRNKQQRIKEEGE [G475V] | disrupting interaction strength
MLYLENNAQTQFSEPQYTNLGLLNSMDQQIQNGSSSTSPYNTDHAQNSVTAPSPYAQPSSTFDALSPSPAIPSNTDYPGPHSFDVSFQQSSTAKSATWTYSTELKKLYCQIAKTCPIQIKVMTPPPQGAVIRAMPVYKKAEHVTEVVKRCPNHELSREFNEGQIAPPSHLIRVEGNSHAQYVEDPITGRQSVLVPYEPPQVGTEFTTVLYNFMCNSSCVGGMNRRPILIIVTLETRDGQVLGRRCFEARICACPGRDRKADEDSIRKQQVSDSTKNGDGTKRPFRQNTHGIQMTSIKKRRSPDDELLYLPVRGRETYEMLLKIKESLELMQYLPQHTIETYRQQQQQQHQHLLQKQTSIQSPSSYGNSSPPLNKMNSMNKLPSVSQLINPQQRNALTPTTIPDGMGANIPMMGTHMPMAGDMNGLSPTQALPPPLSMPSTSHCTPPPPYPTDCSIVSFLARLGCSSCLDYFTTQGLTTIYQTEHYSMDDLASLKIPEQFRHAIWKGILDHRQLHEFSSPSHLLRTPSSASTVSVGSSETRGERVIDAVRFTLRQTISFPPRDEWNDFNFDMDARRNKQQRIKEEGE [I482T] | disrupting interaction strength
MLYLENNAQTQFSEPQYTNLGLLNSMDQQIQNGSSSTSPYNTDHAQNSVTAPSPYAQPSSTFDALSPSPAIPSNTDYPGPHSFDVSFQQSSTAKSATWTYSTELKKLYCQIAKTCPIQIKVMTPPPQGAVIRAMPVYKKAEHVTEVVKRCPNHELSREFNEGQIAPPSHLIRVEGNSHAQYVEDPITGRQSVLVPYEPPQVGTEFTTVLYNFMCNSSCVGGMNRRPILIIVTLETRDGQVLGRRCFEARICACPGRDRKADEDSIRKQQVSDSTKNGDGTKRPFRQNTHGIQMTSIKKRRSPDDELLYLPVRGRETYEMLLKIKESLELMQYLPQHTIETYRQQQQQQHQHLLQKQTSIQSPSSYGNSSPPLNKMNSMNKLPSVSQLINPQQRNALTPTTIPDGMGANIPMMGTHMPMAGDMNGLSPTQALPPPLSMPSTSHCTPPPPYPTDCSIVSFLARLGCSSCLDYFTTQGLTTIYLIEHYSMDDLASLKIPEQFRHAIWKGILDHRQLHEFSSPSHLLRTPSSASTVSVGSSETRGERVIDAVRFTLRQTISFPPRDEWNDFNFDMDARRNKQQRIKEEGE [Q481L] | disrupting interaction strength

Variants of: B1
Settings: with roaa_human HNRNPAB
Remark: another data set of the same source
Target sequence in this assay (Q99729 whole entry): as the sequence (Q99729 whole entry) above

Variant | effect of a mutation on the interaction
MLYLENNAQTQFSEPQYTNLGLLNSMDQQIQNGSSSTSPYNTDHAQNSVTAPSPYAQPSSTFDALSPSPAIPSNTDYPGPHSFDVSFQQSSTAKSATWTYSTELKKLYCQIAKTCPIQIKVMTPPPQGAVIRAMPVYKKAEHVTEVVKRCPNHELSREFNEGQIAPPSHLIRVEGNSHAQYVEDPITGRQSVLVPYEPPQVGTEFTTVLYNFMCNSSCVGGMNRRPILIIVTLETRDGQVLGRRCFEARICACPGRDRKADEDSIRKQQVSDSTKNGDGTKRPFRQNTHGIQMTSIKKRRSPDDELLYLPVRGRETYEMLLKIKESLELMQYLPQHTIETYRQQQQQQHQHLLQKQTSIQSPSSYGNSSPPLNKMNSMNKLPSVSQLINPQQRNALTPTTIPDGMGANIPMMGTHMPMAGDMNGLSPTQALPPPLSMPSTSHCTPPPPYPTDCSIVSFFARLGCSSCLDYFTTQGLTTIYQIEHYSMDDLASLKIPEQFRHAIWKGILDHRQLHEFSSPSHLLRTPSSASTVSVGSSETRGERVIDAVRFTLRQTISFPPRDEWNDFNFDMDARRNKQQRIKEEGE [L459F] | disrupting interaction strength

Variants of: B2
Settings: with roaa_human HNRNPAB
Target sequence in this assay (Q99729 whole entry): as the sequence (Q99729 whole entry) above

Variant | effect of a mutation on the interaction
I576T | disrupting interaction strength
C561V | disrupting interaction strength
Q575L | disrupting interaction strength
L553F | disrupting interaction strength
G569V | disrupting interaction strength

Variants of: B2
Settings: with rack1_human RACK1, P63244

Variant | effect of a mutation on the interaction
L553F | with no effect

Variants of: B2
Settings: with roaa_human HNRNPAB
Remark: another data set of the same source
Target sequence in this assay (Q99729 whole entry): as the sequence (Q99729 whole entry) above

Variant | effect of a mutation on the interaction
L553F | disrupting interaction strength

Variants of: B3
Settings: with scaf4_human SCAF4, O95104

Variant | effect of a mutation on the interaction
L553F | disrupting interaction strength
